This note sets out measurements from article PMC5847621 (Nature Communications, 2018).

The Kd is the concentration at which binding is half-saturated. A low value points to a tighter complex. As a reminder, the stoichiometry N is a count of units in the complex or per binding partner.

For the assay, the target named is T1, VSV Gth, soluble form of the ectodomain of VSV glycoprotein G (residues 1-422) (Vesicular stomatitis virus (Mudd-Summer …, UniProt P0C2X0 17-438)).
T1 sequence: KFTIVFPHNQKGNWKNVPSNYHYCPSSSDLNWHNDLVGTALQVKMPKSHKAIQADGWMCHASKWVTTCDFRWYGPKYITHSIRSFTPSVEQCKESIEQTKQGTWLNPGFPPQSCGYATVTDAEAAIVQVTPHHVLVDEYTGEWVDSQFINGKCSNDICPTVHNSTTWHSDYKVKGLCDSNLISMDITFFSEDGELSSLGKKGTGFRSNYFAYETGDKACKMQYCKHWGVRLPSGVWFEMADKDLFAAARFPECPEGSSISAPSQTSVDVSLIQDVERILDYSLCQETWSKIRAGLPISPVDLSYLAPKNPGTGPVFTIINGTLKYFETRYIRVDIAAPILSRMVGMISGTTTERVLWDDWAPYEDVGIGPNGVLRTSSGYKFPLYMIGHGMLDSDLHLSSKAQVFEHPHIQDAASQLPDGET
The assay is described as follows: ITC. The note with it: both partners purified.

B1: LDL-R CR3 domain, isolated (GST cleaved off) (domain or fragment)
chain: not shown
notes: also called CR3 monovalent domain; not shown: GST, N-terminal, cleaved
Take B1: binding was characterised by a dissociation constant (Kd) of 4.3 µM and the “stoichiometry N” value was 1.

B2: LDL-R CR2 domain, isolated (GST cleaved off) (domain or fragment)
chain: not shown
notes: also called CR2 monovalent domain; not shown: GST, N-terminal, cleaved
As to B2, binding was put at a Kd of 7.3 µM and the “stoichiometry N” value was found to be 1.
